Experimental data reported in patent US20250042944A1 (NATIONAL MARINE BIODIVERSITY INSTITUTE OF KOREA, published 2025).
Bridges are numbered along the chain shown (N, C = ends). Where no end group is shown, it is not given here.

T1: recombinant human vasopressin V1B receptor (human, UniProt P47901 1-424)
T1 sequence (looked up): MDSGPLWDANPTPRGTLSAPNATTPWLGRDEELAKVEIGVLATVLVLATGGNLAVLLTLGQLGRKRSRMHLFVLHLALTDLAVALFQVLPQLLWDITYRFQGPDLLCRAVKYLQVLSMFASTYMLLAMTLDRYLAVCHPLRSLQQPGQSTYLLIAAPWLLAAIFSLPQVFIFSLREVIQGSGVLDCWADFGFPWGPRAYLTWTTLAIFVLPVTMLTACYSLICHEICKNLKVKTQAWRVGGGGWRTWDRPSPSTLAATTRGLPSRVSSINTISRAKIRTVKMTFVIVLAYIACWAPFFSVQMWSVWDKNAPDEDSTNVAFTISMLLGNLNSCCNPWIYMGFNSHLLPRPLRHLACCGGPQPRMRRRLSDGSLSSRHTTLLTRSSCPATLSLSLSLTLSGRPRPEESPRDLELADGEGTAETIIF

T2: recombinant human oxytocin receptor (human, UniProt P30559 1-389)
T2 sequence (looked up): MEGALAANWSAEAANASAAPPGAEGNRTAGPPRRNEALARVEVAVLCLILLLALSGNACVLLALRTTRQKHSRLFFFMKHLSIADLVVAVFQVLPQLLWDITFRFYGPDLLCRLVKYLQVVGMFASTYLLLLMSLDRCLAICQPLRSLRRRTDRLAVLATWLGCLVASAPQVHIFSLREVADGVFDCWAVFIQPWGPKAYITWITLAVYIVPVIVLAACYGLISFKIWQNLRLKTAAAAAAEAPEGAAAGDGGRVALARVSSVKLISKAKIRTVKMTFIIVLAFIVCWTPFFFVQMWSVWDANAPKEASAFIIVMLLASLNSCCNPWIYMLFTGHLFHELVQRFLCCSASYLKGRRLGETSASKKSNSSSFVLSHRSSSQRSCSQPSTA


How the values were obtained:
Assay in all cases: cell-based or functional assay
[1] = molecular target: T1, recombinant human vasopressin V1B …
[2] = molecular target: T2, recombinant human oxytocin receptor
[3] = molecular target: recombinant human vasopressin V2 receptor (human, UniProt P30518 1-371)

| EC50 of receptor activation (intracellular calcium increase, calcium dye fluorescence imaging, RBL cells) [1] | IC50 of receptor inhibition (calcium response to 30 nM oxytocin, calcium dye fluorescence imaging, ECV304 cells) [2] | EC50 of receptor activation (intracellular cAMP accumulation, HTRF, CHO cells) [3] | Binder |
| --- | --- | --- | --- |
| 214 nM | 16000 nM | – | CFFRNCPPG-NH2 (disulfide 1-6; N-terminus assumed; SMILES N=C(N)NCCC[C@@H]1NC(=O)[C@H](Cc2ccccc2)NC(=O)[C@H](Cc2ccccc2)NC(=O)[C@@H](N)CSSC[C@@H](C(=O)N2CCC[C@H]2C(=O)N2CCC[C@H]2C(=O)NCC(N)=O)NC(=O)[C@H](CC(N)=O)NC1=O) [Pro-sepiatocin] |
| 0.94 nM | – | 42 nM | CYFRNCPAG-NH2 (disulfide 1-6; N-terminus assumed; SMILES C[C@H](NC(=O)[C@@H]1CCCN1C(=O)[C@@H]1CSSC[C@H](N)C(=O)N[C@@H](Cc2ccc(O)cc2)C(=O)N[C@@H](Cc2ccccc2)C(=O)N[C@@H](CCCNC(=N)N)C(=O)N[C@@H](CC(N)=O)C(=O)N1)C(=O)NCC(N)=O) [Squidtocin] |
